From paper PMC10786891, “Massively parallel profiling of RNA-targeting CRISPR-Cas13d”
Substitutions are numbered along the chain they refer to. Numbers in names are those of the source.

T1: EsCas13d, nuclease-dead (Eubacterium siraeum, UniProt B0MS50, R295A;H300A;R849A;H854A)
T1 sequence: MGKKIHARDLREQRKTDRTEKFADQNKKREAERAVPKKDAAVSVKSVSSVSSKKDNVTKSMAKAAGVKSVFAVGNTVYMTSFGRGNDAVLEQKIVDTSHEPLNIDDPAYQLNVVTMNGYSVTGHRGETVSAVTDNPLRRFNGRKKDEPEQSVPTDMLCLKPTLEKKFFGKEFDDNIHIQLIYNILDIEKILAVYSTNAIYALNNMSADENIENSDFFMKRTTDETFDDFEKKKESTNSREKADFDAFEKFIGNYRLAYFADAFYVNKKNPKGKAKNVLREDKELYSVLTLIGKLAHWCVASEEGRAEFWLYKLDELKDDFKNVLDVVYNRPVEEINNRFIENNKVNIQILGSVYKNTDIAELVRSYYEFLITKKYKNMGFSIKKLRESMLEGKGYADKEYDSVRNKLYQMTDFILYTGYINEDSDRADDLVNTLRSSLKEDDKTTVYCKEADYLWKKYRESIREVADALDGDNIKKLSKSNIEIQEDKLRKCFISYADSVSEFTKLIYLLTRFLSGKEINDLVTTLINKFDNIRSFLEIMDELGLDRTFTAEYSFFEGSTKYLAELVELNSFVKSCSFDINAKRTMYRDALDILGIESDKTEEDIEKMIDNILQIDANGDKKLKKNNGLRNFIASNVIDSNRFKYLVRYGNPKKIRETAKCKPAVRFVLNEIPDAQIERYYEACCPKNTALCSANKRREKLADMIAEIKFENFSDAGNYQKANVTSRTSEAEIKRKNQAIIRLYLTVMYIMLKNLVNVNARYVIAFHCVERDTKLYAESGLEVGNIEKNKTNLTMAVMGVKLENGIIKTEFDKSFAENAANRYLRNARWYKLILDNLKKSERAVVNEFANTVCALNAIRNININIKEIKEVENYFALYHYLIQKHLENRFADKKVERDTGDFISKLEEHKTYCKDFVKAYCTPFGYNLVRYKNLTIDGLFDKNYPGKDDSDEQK

B1: target 1 C6G,G17U (mixed)
RNA 1: CACCCGUGCAAAAAUGCAGGGGUCUAAAACUGAGCGGAUAACCUCUCUAUGG
RNA 2: GGGAAUGGAUCCACAUCUACGAAUUCGUACCAUAUAGAGGUUAUCGGCUCACCGAGAUCGGAAGAGCACACGU
B2: target 1 C6A,U19A (mixed)
RNA 1: B1 RNA 1
RNA 2: B1 RNA 2 with U33A, U35G, G46A
B3: target 1 C6A,A16G (mixed)
RNA 1: B1 RNA 1
RNA 2: B1 RNA 2 with U35G, A36G, G46A
B4: target 1 insU 3' of 4,insA 3' of 4 (mixed)
RNA 1: B1 RNA 1
RNA 2: GGGAAUGGAUCCACAUCUACGAAUUCGUACCAUAGAGAGGUUAUCCGCUAUCACCGAGAUCGGAAGAGCACACGU
B5: target 1 insA 3' of 6,insC 3' of 5 (mixed)
RNA 1: B1 RNA 1
RNA 2: B4 RNA 2 with G47A, C48G, U49C, A50C
B6: target 1 U3C,C7A (mixed)
RNA 1: B1 RNA 1
RNA 2: B1 RNA 2 with U35G, C45A, G46C, U49C
B7: target 1 insC 3' of 19,insG 3' of 14 (mixed)
RNA 1: B1 RNA 1
RNA 2: GGGAAUGGAUCCACAUCUACGAAUUCGUACCAUCAGAGAGGGUUAUCCGCUCACCGAGAUCGGAAGAGCACACGU
B8: target 1 A9U,G13A (mixed)
RNA 1: B1 RNA 1
RNA 2: B1 RNA 2 with U35G, G39A, A43U, G46C
B9: target 1 del7,del22 (mixed)
RNA 1: B1 RNA 1
RNA 2: GGGAAUGGAUCCACAUCUACGAAUUCGUACAUAGAGAGGUUAUCGCUCACCGAGAUCGGAAGAGCACACGU
B10: target 1 insG 3' of 14,insA 3' of 8 (mixed)
RNA 1: B1 RNA 1
RNA 2: B4 RNA 2 with U41G, A43U, U44A, C45U, C46A, G47C, U49G, A50C
B11: target 1 C2A,G12U (mixed)
RNA 1: B1 RNA 1
RNA 2: B1 RNA 2 with U35G, G40U, G46C, C50A
B12: target 1 A16C,G17U (mixed)
RNA 1: B1 RNA 1
RNA 2: B1 RNA 2 with A36C, G46C
B13: target 1 G12C,C22A (mixed)
RNA 1: B1 RNA 1
RNA 2: B1 RNA 2 with C30A, U35G, G40C, G46C
B14: target 1 insA 3' of 22,insU 3' of 21 (mixed)
RNA 1: B1 RNA 1
RNA 2: B7 RNA 2 with C31A, A32C, C34A, A35U, G36A, A37G, G38A, A39G, G40A
B15: target 1 insA 3' of 5,insU 3' of 5 (mixed)
RNA 1: B1 RNA 1
RNA 2: B4 RNA 2 with C48A, A50C
B16: target 1 C6G,U8G (mixed)
RNA 1: B1 RNA 1
RNA 2: B1 RNA 2 with U35G, U44G
B17: target 1 insC 3' of 15,insG 3' of 4 (mixed)
RNA 1: B1 RNA 1
RNA 2: GGGAAUGGAUCCACAUCUACGAAUUCGUACCAUAGAGCAGGUUAUCCGCGUCACCGAGAUCGGAAGAGCACACGU
B18: target 1 C2A,G12A (mixed)
RNA 1: B1 RNA 1
RNA 2: B1 RNA 2 with U35G, G40A, G46C, C50A
B19: target 1 insU 3' of 16,insC 3' of 16 (mixed)
RNA 1: B1 RNA 1
RNA 2: B7 RNA 2 with C34A, A35G, G36A, A37U, G38C, A39G, G40A
B20: target 1 C2U,A20U (mixed)
RNA 1: B1 RNA 1
RNA 2: B1 RNA 2 with A32U, U35G, G46C, C50U
B21: target 1 C2G,A14G (mixed)
RNA 1: B1 RNA 1
RNA 2: B1 RNA 2 with U35G, A38G, G46C, C50G
B22: target 1 insC 3' of 22,insA 3' of 17 (mixed)
RNA 1: B1 RNA 1
RNA 2: B7 RNA 2 with A32C, U33A, C34U, G38A, A39G, G40A
B23: target 1 insA 3' of 12,insA 3' of 7 (mixed)
RNA 1: B1 RNA 1
RNA 2: B4 RNA 2 with U41A, A43U, U44A, C45U, G47A, U49G, A50C
B24: target 1 insA 3' of 19,insU 3' of 5 (mixed)
RNA 1: B1 RNA 1
RNA 2: B17 RNA 2 with G35A, A36G, G37A, C38G, C49U, G50C
B25: target 1 insA 3' of 6,insA 3' of 3 (mixed)
RNA 1: B1 RNA 1
RNA 2: B4 RNA 2 with G47A, C48G, U49C, A50U, U51A
B26: target 1 U8A,C21U (mixed)
RNA 1: B1 RNA 1
RNA 2: B1 RNA 2 with C31U, U35G, U44A, G46C
B27: target 1 insG 3' of 22,insA 3' of 4 (mixed)
RNA 1: B1 RNA 1
RNA 2: B17 RNA 2 with C31G, A32C, U33A, A34U, G35A, A36G, G37A, C38G, G50A
B28: target 1 C2G,C22A (mixed)
RNA 1: B1 RNA 1
RNA 2: B1 RNA 2 with C30A, U35G, G46C, C50G
B29: target 1 insU 3' of 22,insG 3' of 7 (mixed)
RNA 1: B1 RNA 1
RNA 2: B7 RNA 2 with C31U, A32C, U33A, C34U, G42U, U44A, A45U, U46C, C47G
B30: target 1 insU 3' of 21,insG 3' of 4 (mixed)
RNA 1: B1 RNA 1
RNA 2: B17 RNA 2 with A32U, U33A, A34U, G35A, A36G, G37A, C38G
B31: target 1 insU 3' of 18,insC 3' of 18 (mixed)
RNA 1: B1 RNA 1
RNA 2: B7 RNA 2 with C34A, A35U, G36C, A37G, G38A, A39G, G40A
B32: target 1 insU 3' of 2,insG 3' of 2 (mixed)
RNA 1: B1 RNA 1
RNA 2: B4 RNA 2 with A50C, C52G
B33: target 1 insC 3' of 17,insG 3' of 7 (mixed)
RNA 1: B1 RNA 1
RNA 2: B17 RNA 2 with A36C, G37A, C38G, C47G, G48C, C49G, G50C

What follows are binders tested against T1, EsCas13d, nuclease-dead (assay: crRNA (strand 1, pre-loaded); Mg2+; 40 mM Tris-HCl pH 7.5, 150 mM NaCl, 6 mM MgCl2, 1 mM DTT, 0.1% Tween-20, 0.2 mg/ml BSA; 25 C; 10 min per concentration, then washed). Conditions: tags: His6-TwinStrep-SUMO cleaved; N-terminal SNAP kept (SNAP-Surface 488); label: 3' end held by stalled T7 RNA polymerase.

B1 and B2 are within error of each other in Kd: 31.4 ± 2.7 nM for the first, 29.8 ± 1.7 nM for the second.

First: B3
Second: B4
The Kd of the first is 3.2-fold higher: 28.8 ± 1.4 nM for the first, 9.1 ± 0.5 nM for the second.

First: B5
Second: B6
The Kd of the first is 3-fold higher: 23.9 ± 1.9 nM for the first, 8 ± 0.4 nM for the second. The second binds more tightly here.

Going from B7 to B8, the Kd falls from 72 ± 11 nM to 12.9 ± 0.9 nM (5.6-fold).

Going from B9 to B10, the Kd falls from 22.6 ± 1.3 nM to 10.6 ± 0.4 nM (2.1-fold). The second binds more tightly here.

First: B11
Second: B12
The Kd of the first is 3-fold lower: 9.2 ± 0.4 nM for the first, 28 ± 1.4 nM for the second.

Going from B13 to B14, the Kd falls from 25 ± 1.1 nM to 6.09 ± 0.28 nM (4.1-fold).

First: B15
Second: B16
The Kd of the first is 1.9-fold lower: 6.6 ± 0.6 nM for the first, 12.8 ± 0.6 nM for the second.

Going from B17 to B18, the Kd falls from 10.7 ± 0.6 nM to 4.57 ± 0.22 nM (2.3-fold). The second binds more tightly here.

B19 and B20 are within 1.5-fold of each other in Kd: 47 ± 4 nM for the first, 34 ± 4 nM for the second.

Compared with B21, B22 is 2.1-fold higher in Kd: 15.6 ± 1.8 nM for the first, 33 ± 5 nM for the second.

Going from B23 to B24, the Kd rises from 25.9 ± 2.4 nM to 41 ± 6 nM (1.6-fold). The first binds more tightly here.

Going from B25 to B26, the Kd falls from 21.5 ± 2.2 nM to 9.1 ± 0.4 nM (2.4-fold). The second binds more tightly here.

B27 and B28 are within error of each other in Kd: 17.9 ± 2.6 nM for the first, 16.9 ± 1.8 nM for the second.

B29 and B30 are within error of each other in Kd: 22.8 ± 1.6 nM for the first, 24.9 ± 2.8 nM for the second.

Compared with B31, B32 is 9.8-fold lower in Kd: 84 ± 9 nM for the first, 8.6 ± 0.6 nM for the second. The second binds more tightly here.

For B33, the Kd was 42 ± 7 nM.
